Patent US7968297B2, “Method for identification, isolation and production of antigens to a specific pathogen” (Intercell AG, priority 2001, dated 2011)

Tested on: antibodies in human patient sera
Experiment: Western blot reactivity of selected clones with human sera
Type: binding
Conditions: 10 to 30 different human patient sera
Protocol: For Western blot analysis approximately 10 to 20 μg of total cellular protein was separated by 10% SDS-PAGE and blotted onto HybondC membrane (Amersham Pharmacia Biotech, England). The LamB or FhuA fusion proteins were detected using human serum as the primary antibody at a dilution of 1:5000 and anti human IgG antibodies coupled to HRP at a dilution of 1:5000 as secondary antibodies. Detection was performed using the ECL detection kit (Amersham Pharmacia Biotech, England). Alternatively, rabbit anti FhuA or mouse anti LamB antibodies were used as primary antibodies in combination with the respective secondary antibodies coupled to HRP for the detection of the fusion proteins.
Subsequent sequencing of a larger number of randomly picked clones (500 to 800 per screen) led to the identification of the gene and the corresponding peptide or protein sequence that was specifically recognized by the human patient serum used for screening. The frequency with which a specific clone is selected reflects at least in part the abundance and/or affinity of the specific antibodies in the serum used for selection and recognizing the epitope presented by this clone. […] All clones that are presented in Table 2 have been verified by Western blot analysis using whole cellular extracts from single clones to show the indicated reactivity with the pool of human serum used in the screen.
10 to 30 different human patient sera were subsequently used to evaluate the presence of antibodies against the selected immunogenic peptide sequences that have been discovered in the screen according to the present invention. To eliminate possible cross-reactivity with proteins expressed by E. coli, all sera were pre-adsorbed with a total cellular lysate of E. coli DHa cells expressing FhuA protein.
This analysis is summarized in Table 2 and as an example shown in FIG. 4 and is indicative of the validity of the present screen.

| Molecule | antibodies against selected epitope in patients |
| --- | --- |
| IgG binding protein A [compound 2548] | production of antibodies in a large number of patients |
| IsaA, possibly adhesion/aggregation (protein, listed as Staphylococcus aureus) MKKTIMASSLAVALGVTGYAAGTGHQAHAAEVNVDQAHLVDLAHNHQDQLNAAPIKDGAYDIHFVKDGFQYNFTSNGTTWSWSYEAANGQTAGFSNVAGADYTTSYNQGSNVQSVSYNAQSSNSNVEAVSAPTYHNYSTSTTSSSVRLSNGNTAGATGSSAAQIMAQRTGVSASTWAAIIARESNGQVNAYNPSGASGLFQTMPGWGPTNTVDQQINAAVKAYKAQGLGAWGF | production of antibodies in a large number of patients |
| extracellular matrix and plasma binding protein (protein, listed as Staphylococcus aureus) MNSNHAKASVTESVDKKFVVPESGINKIIPAYDEFKNSPKVNVSNLTDNKNFVASEDKLNKIADSSAASKIVDKNFVVPESKLGNIVPEYKEINNRVNVATNNPASQQVDKHFVAKGPEVNRFITQNKVNHHFITTQTHYKKVITSYKSTHVHKHVNHAKDSINKHFIVKPSESPRYTHPSQSLIIKHHFAVPGYHAHKFVTPGHASIKINHFCVVPQINSFKVIPPYGHNSHRMHVPSFQNNTTATHQNAKVNKAYDYKYFYSYKVVKGVKKYFSFSQSNGYKIGKPSLNIKNVNYQYAVPSYSPTHYVPEFKGSLPAPRV | production of antibodies in a large number of patients |

Same assay, conditions: clone and its aa region are named in the cell; prefix A/B/C = screen the clone came from

| Molecule | Serum reactivity with relevant region (positive/total) |
| --- | --- |
| IsaA, possibly adhesion/aggregation (protein, listed as Staphylococcus aureus) MKKTIMASSLAVALGVTGYAAGTGHQAHAAEVNVDQAHLVDLAHNHQDQLNAAPIKDGAYDIHFVKDGFQYNFTSNGTTWSWSYEAANGQTAGFSNVAGADYTTSYNQGSNVQSVSYNAQSSNSNVEAVSAPTYHNYSTSTTSSSVRLSNGNTAGATGSSAAQIMAQRTGVSASTWAAIIARESNGQVNAYNPSGASGLFQTMPGWGPTNTVDQQINAAVKAYKAQGLGAWGF | B: SELAA47(238-259): 12/12 |

Same assay, conditions: positive sera / total sera tested; clone and its aa region named in the cell

| Molecule | Serum reactivity with relevant region (positive/total) |
| --- | --- |
| ARF0280 (VYMLSSTRFIVRWYNNCNKSTNIINERSSGSIKSDGNSSCFFK) | SALAM59(25-43): 1/1 |
| CRF0145 (protein) FKYKKNRKIPSIMMQQIKITILYSYLTINKWEYLLNITPNKTVLPATGQKELILAVFTMFKVSKSFSLILTYFFGISQLIIGKKSANHVLTKSIIKYSSLYLIILYLGFLLIFSVSQSNVSTSFQLVLY | SALAZ40(81-90): 2/12 |
| CRF0497 (protein) LLHHLVLLHLSQLILAQLPYQELTLVRKMDSHVLGLYPLIVYVQFQMFPYHRYQNQSIHRFDLQYFH | GSBXF31(19-34): 1/7 |
| ORF2958 (protein, listed as Staphylococcus aureus) MKMKNIAKISLLLGILATGVNTTTEKPVHAEKKPIVISENSKKLKAYYNQPSIEYKNVTGYISFIQPSIKFMNIIDGNSVNNIALIGKDKQHYHTGVHRNLNIFYVNEDKRFEGAKYSIGGITSANDKAVDLIAEARVIKEDHTGEYDYDFFPFKIDKEAMSLKEIDFKLRKYLIDNYGLYGEMSTGKITVKKKYYGKYTFELDKKLQEDRMSDVINVTDIDRIEIKVIKA | F: SALBB59(154-168): 4/41 |
| ORF2931 (protein, listed as Staphylococcus aureus) MKLKSLAVLSMSAVVLTACGNDTPKDETKSTESNTNQDTNTTKDVIALKDVKTSPEDAVKKAEETYKGQKLKGISFENSNGEWAYKVTQQKSGEESEVLVADKNKKVINKKTEKEDTMNENDNFKYSDAIDYKKAIKEGQKEFDGDIKEWSLEKDDGKLVYNIDLKKGNKKQEVTVDAKNGKVLKSEQDH | E: GSBZA13(22-37): 7/41 |
| CRF1763 (protein) FEATKVPHNGSTLINNALNFNEALICLSLKVNIALIIPKIATIRGIVMLGYCGICKKAPRPAITPHTNAIYRNCFKSFTPKLLLHYYT | C: GSBYI30(1-22): 1/1 |
| ORF1848 (protein, listed as Staphylococcus aureus) MKLKSFVTATLALGLLSTVGAALPSHEASADSNNGYKEMTVDGYHTVPYTISVDGITALHRTYFIFPENKNVLYQEIDSKVKNELASQRGVTTEKINNAQTATYTLTLNDGNKKVVNLKKNDDAKNSIDPSTIKQIQIVVK | E: GSBZB15(75-90): 6/41 |
